B1: myelin basic protein (purified MBP) (other, human, UniProt P02686-5 2-171, looked up)
chain: ASQKRPSQRHGSKYLATASTMDHARHGFLPRHRDTGILDSIGRFFGGDRGAPKRGSGKDSHHPARTAHYGSLPQKSHGRTQDENPVVHFFKNIVTPRTPPPSQGKGRGLSLSRFSWGAEGQRPGFGYGGRASDYKSAHKGFKGVDAQGTLSKIFKLGGRDSRSGSPMARR
notes: also called intact MBP

Experiment [1] deals with B1. The experiment is described as follows: dot blot: peptide immobilised on nitrocellulose, incubated with MBP, detected with mAb 384. On the procedure: Dot Blot Analysis. […] Insulin (Sigma) was resuspended to 2 mg/ml in water at pH 2.0 and diluted to 2 μg/ml in Tris-buffered saline. 1 μg of each was immobilized onto Hybond ECL nitrocellulose membranes using a Bio-Dot microfiltration apparatus (Bio-Rad) according to the manufacturer's instructions. Each membrane was removed from the apparatus following immobilization and blocked overnight in 5% BSA and PBS at 4° C. […] The membrane was washed 3×10 min with 5% BSA, PBS, and 0.05% Tween 20 and incubated with mAb 384 (1:2000 dilution) for 1 h at room temperature. The membrane was next washed […] with PBS and 0.05% Tween 20 and incubated with horseradish peroxidase-conjugated sheep antimouse IgG (1:2000 dilution) for 1 h at room temperature. Detection and quantitation were performed as described above.

In the next experiment the target is T1, wild-type Aβ42 peptide (UniProt P05067 672-713).
T1 construct: domain: Aβ42; Free in co-immunoprecipitation; also called Aβ42WT
T1 sequence (P05067 672-713 limits assumed): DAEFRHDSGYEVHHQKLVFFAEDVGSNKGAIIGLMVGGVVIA
The experiment is described as follows: SPR, Aβ peptide immobilised, MBP as analyte.

RGRKQCKTHPHFVIPYRCLV [APP 100-119]: the binding result in experiment [1] is “no binding (tested: 1 g/ml MBP (as printed in paragraph 99))”.
The molecule B1 returned a Kd with wild-type Aβ42 peptide of 43 nM.
For the molecule PEERHLSKMQQNGYENPTYK (also called AβPP-(744-763)) [APP 744-763], in experiment [1], the binding result is reported as “no binding (tested: 1 g/ml MBP (as printed in paragraph 99))”.

(Values after patent US20110294740A1 (RESEARCH FOUNDATION FOR THE STATE UNIVERSITY OF NEW YORK, published 2011).)
